Reference: US20140363423A1 (NATIONAL TAIWAN UNIVERSITY, published 2014)
Where “and” joins values, the source holds several entries; their conditions need not be identical. Equal entries are not always repeated.

T1: platelet glycoprotein VI (GPVI) on washed human platelets (human), Q9HCN6
T1 chain: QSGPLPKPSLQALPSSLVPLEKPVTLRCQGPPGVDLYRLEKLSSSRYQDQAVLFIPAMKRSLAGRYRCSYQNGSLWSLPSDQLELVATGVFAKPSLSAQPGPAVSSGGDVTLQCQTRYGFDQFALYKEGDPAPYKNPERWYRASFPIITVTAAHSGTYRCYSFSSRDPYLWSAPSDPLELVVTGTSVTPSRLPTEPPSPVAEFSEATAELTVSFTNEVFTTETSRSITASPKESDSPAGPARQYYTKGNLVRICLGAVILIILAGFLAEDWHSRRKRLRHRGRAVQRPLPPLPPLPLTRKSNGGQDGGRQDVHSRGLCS

T2: platelet glycoprotein VI (GPVI) on washed human platelets (human, UniProt Q9HCN6 21-339)
T2 construct: whole, on cells; Native receptor on human platelets; also called platelet GPVI; collagen receptor GPVI
T2 sequence: T1 chain

B1: decapeptide of trowaglerix α subunit (Troα10, …) (peptide)
peptide: GFCKWMNVAC
modifications: not checked
B2: recombinant convulxin α subunit C-terminal (CVX α C-terminal 104-135) (peptide)
chain: CSLLKKETGFRKWFVASCIGKIPFVCKFPPQC
B3: hexapeptide of trowaglerix α subunit (Troα6, CKWMNV) (peptide)
peptide: CKWMNV
B4: Agg-α6 (Aggretin) hexapeptide RKWVNY (peptide)
peptide: RKWVNY
B5: Agk--β6 hexapeptide NQWLSR (peptide)
peptide: NQWLSR
B6: CVX-α6 (Convulxin) hexapeptide RKWFVA (peptide)
peptide: RKWFVA
B7: recombinant convulxin β subunit C-terminal (CVX β C-terminal 94-125) (peptide)
chain: EEFECLISRTFDNQWLSAPCSDTYSFVCKFEA

Tests used:
[1] = molecular target: platelet glycoprotein VI (GPVI) on washed human platelets (human) (UniProt Q9HCN6); experiment: cell-based or functional assay
[2] = molecular target: T1, platelet glycoprotein VI (GPVI) on …; experiment: cell-based or functional assay
[3] = molecular target: T2, platelet glycoprotein VI (GPVI) on …; experiment: flow cytometry on human platelets; inhibition of 6B12 (anti-GPVI) binding
[4] = molecular target: T2, platelet glycoprotein VI (GPVI) on …; experiment: cell-based or functional assay

Row | Molecule | Inhibition of the collagen-induced aggregation (%) at 100 µg/ml [1] [%] | Inhibition of the collagen-induced aggregation (%) at 100 µg/ml [4] [%] | other results
1 | Tro-α6 M117A mutant hexapeptide CKWANV | 52.9 | – | –
2 | Tro-α6 W116A mutant hexapeptide CKAMNV | 12.3 | – | –
3 | d-form Tro-α6 hexapeptide C(dK)WM(dN)V | 89.4 | – | IC50, inhibition of the collagen-induced aggregation [1]: 6.82 µg/ml and 8.75 µM
4 | B1 | – | – | IC50, inhibition of the collagen-induced aggregation [2]: 30.4 µM; Inhibition of the collagen-induced aggregation (%) at 100 µg/ml [2]: 93.8%; inhibition on collagen-induced aggregation [2]: 60%
5 | B2 | – | – | binding result [3]: binds
6 | B3 | – | 44.3 | IC50, inhibition of the collagen-induced aggregation [4]: 83.4 µg/ml and 107 µM
7 | B4 | – | 21.7 | –
8 | B5 | – | 24.6 | –
9 | B6 | – | 28.7 | –
10 | B7 | – | – | binding result [3]: binds
